{"source": "paper PMC3861672", "molecular_target": "Fps1 (UniProt P23900)", "test": "BiFC, split CFP", "details": "reference: no sorbitol"}
{"substance": "Hog1 (from UniProt P32485) 1 M sorbitol, 5 min", "values": [{"measurement": "other: percent of cells with detectable fluorescence", "value": "stronger; reference 27.6"}]}
